The experiment deals with β-casein. The settings on record: scale: % of the protease activity of natural Hin47 protein.

Hin47 Ser-197->alanine analog (enzyme) showed a Protease activity (digestion of β-casein, SDS-PAGE) of under 10.

(Values after patent US6114125.)
